Key:
[1] = biological target: T1, rabies virus M protein (form used not stated; discussion of Example 9, data not shown) (rabies virus, UniProt P16287 1-202); test: far-western blot presumably; data not shown
T1 sequence: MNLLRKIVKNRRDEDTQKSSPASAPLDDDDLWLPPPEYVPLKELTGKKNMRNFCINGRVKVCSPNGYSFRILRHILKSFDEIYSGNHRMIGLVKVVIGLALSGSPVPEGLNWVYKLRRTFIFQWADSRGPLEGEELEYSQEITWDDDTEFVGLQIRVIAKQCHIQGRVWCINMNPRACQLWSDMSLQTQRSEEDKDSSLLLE

[2] = biological target: T2, NS1I-1 fragment expressed from the HeLa cDNA library plasmid pK5 (activation domain fusion) (human, UniProt P51659 266-736); test: yeast interaction trap, lacZ reporter; pRFHM1 as control bait
T2 sequence: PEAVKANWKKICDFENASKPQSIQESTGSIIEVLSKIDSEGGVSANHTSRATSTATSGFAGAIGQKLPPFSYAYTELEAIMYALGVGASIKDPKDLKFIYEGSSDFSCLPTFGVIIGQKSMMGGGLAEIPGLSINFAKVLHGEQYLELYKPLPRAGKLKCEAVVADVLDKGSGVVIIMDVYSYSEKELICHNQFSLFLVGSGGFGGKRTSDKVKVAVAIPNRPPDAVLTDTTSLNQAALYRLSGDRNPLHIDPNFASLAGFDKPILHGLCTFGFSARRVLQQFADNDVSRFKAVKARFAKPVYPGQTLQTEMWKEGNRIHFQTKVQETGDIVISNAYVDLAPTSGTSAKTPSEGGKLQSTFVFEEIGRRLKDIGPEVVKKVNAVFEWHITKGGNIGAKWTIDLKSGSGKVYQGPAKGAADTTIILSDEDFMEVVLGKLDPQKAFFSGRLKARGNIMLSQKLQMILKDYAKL

[3] = biological target: T3, NS1-BP fragment (amino acids 347 to 619) expressed from the HeLa cDNA library plasmid p59-1 (activation … (human, UniProt Q9Y6Y0 347-611)); test: yeast interaction trap, lacZ reporter
T3 sequence: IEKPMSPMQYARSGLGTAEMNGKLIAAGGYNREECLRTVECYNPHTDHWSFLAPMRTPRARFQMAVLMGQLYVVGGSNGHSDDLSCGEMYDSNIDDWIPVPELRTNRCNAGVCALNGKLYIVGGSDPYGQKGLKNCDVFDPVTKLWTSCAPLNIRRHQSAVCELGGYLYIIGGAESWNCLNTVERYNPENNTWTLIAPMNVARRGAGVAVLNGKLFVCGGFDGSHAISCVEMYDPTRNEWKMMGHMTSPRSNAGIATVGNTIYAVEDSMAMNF

B1: WW domain from ESS 1 (other)
chain: TGLPTPWTVRYSKSKKREYFFNPETKHSQWEEPEG
notes: domain: WW
[1]
  binding result: no binding

B2: LexA-bicoid fusion protein (encoded by pRFHM1) (other)
chain: AQPPPDQNFYHHPLPHTHTHPHPHSHPHPHSHPHPHHQHPQLQLPPQFRNPFDLLFDERTGAINYNYIRPYLPNQMPKPEELPDSLVMRRPRRTRTTFTSSQIAELEQHFLQGRYLTAPRLADLSAKLALGTAQVKIWFKNRRRRHKIQSDQHKDQSYE
notes: also called LexA fused to a transcriptionally inert fragment of the Drosophila melanogaster bicoid protein
[2]
  binding result: no binding
[3]
  binding result: no binding
